The target in assay [1] is PlpD M249C with an N-terminal TwinStrepII tag (P. aeruginosa (strain PA14)) (UniProt Q9HYQ6). The assay can be described thus: cross-linking; in vivo disulfide-bond formation, time course: cells in ice-cold PBS with 0.2 mM 4-DPS for 0, 2, 5, 15, 30, 60, 90 and 120 min; immunoblot with the anti-PlpD C-terminal peptide antiserum. (In general: Immunoblotting shows a protein as a band on a membrane.)

For assay [2] the target is unchanged. The assay can be described thus: cross-linking; in vivo disulfide-bond formation: cysteine mutants expressed in P. aeruginosa SEH88; intact cells in ice-cold PBS with 0.2 mM 4-DPS (or ethanol, mock) for 30 min; TCA precipitation, SDS-PAGE, immunoblot with the anti-PlpD C-terminal peptide antiserum.
The target in assay [3] is PlpD I532C with an N-terminal TwinStrepII tag (P. aeruginosa (strain PA14)) (UniProt Q9HYQ6). The assay can be described thus: cross-linking; in vivo disulfide-bond formation, time course: cells in ice-cold PBS with 0.2 mM 4-DPS for 0, 2, 5, 15, 30, 60, 90 and 120 min; immunoblot with the anti-PlpD C-terminal peptide antiserum.
For assay [4] the target is unchanged. The assay can be described thus: cross-linking; in vivo disulfide-bond formation: cysteine mutants expressed in P. aeruginosa SEH88; intact cells in ice-cold PBS with 0.2 mM 4-DPS (or ethanol, mock) for 30 min; TCA precipitation, SDS-PAGE, immunoblot with the anti-PlpD C-terminal peptide antiserum.
Assay [5] deals with PlpD S118C with an N-terminal TwinStrepII tag (P. aeruginosa (strain PA14)) (UniProt Q9HYQ6). The assay is described as above.
Assay [6] deals with PlpD V113C with an N-terminal TwinStrepII tag (P. aeruginosa (strain PA14)) (UniProt Q9HYQ6). The assay is described as above.
The target in assay [7] is PlpD I117C with an N-terminal TwinStrepII tag (P. aeruginosa (strain PA14)) (UniProt Q9HYQ6). Described as above.

As a reminder, the stoichiometry N is a count of units in the complex or per binding partner.

“PlpD M249C with an N-terminal TwinStrepII tag (from UniProt Q9HYQ6 1-728) (natural protein)” came in with a percent intermolecular disulfide bonding, plateau of the time course (60-90 min) in assay [1] of 91.5%. In assay [2], this substance had a percent of PlpD in intermolecular disulfide-bonded form (30 min 4-DPS) of 65% and a stoichiometry N of 2.

As to “PlpD I532C with an N-terminal TwinStrepII tag (from UniProt Q9HYQ6 1-728) (natural protein)”, the percent intermolecular disulfide bonding, peak of the time course in assay [3] worked out at 63%. In addition, in assay [4], the percent of PlpD in intermolecular disulfide-bonded form (30 min 4-DPS) worked out at 65% and the stoichiometry N was found to be 2.

“PlpD S118C with an N-terminal TwinStrepII tag (from UniProt Q9HYQ6 1-728) (natural protein)” had a percent intermolecular disulfide bond formation in assay [5] of 84%.

In assay [6], “PlpD V113C with an N-terminal TwinStrepII tag (from UniProt Q9HYQ6 1-728) (natural protein)” registered a percent intermolecular disulfide bond formation of 84%.

In assay [7], “PlpD I117C with an N-terminal TwinStrepII tag (from UniProt Q9HYQ6 1-728) (natural protein)” had a percent intermolecular disulfide bond formation of 84%.

(Values after article PMC11116518.)
